# Values of other authors as cited in article PMC3045386.
# pKd: −log10 of the molar value.
# Target: Ran (Homo sapiens) (UniProt P62826)
substance,measurement,value
RanBP3 (from UniProt Q9H6Z4),pKd,5.00
